Measurements reported in paper PMC6833485.

Target: thrombin (Homo sapiens, UniProt P00734;P00734 328-363;364-622)
Assay: reflectometric interference spectroscopy (RIfS), immobilized aptamer; PBS + MgCl2; sigmoidal fit of dEOT; Binding buffer PBS + MgCl2 (concentration, pH not given); TBA preheated 95 °C 5 min, cooled to room temperature; flow cell, assay temperature not stated

For GGTTGGTGTGGTTGG (structured_DNA, 5'-biotin) [TBA 15-mer (5'-biotin)], the Kd was 900 nM.
